Assays:
[1] = test system: HeLa Kyoto; experiment: solubility change mitosis vs G1/S (difference of NP-40 vs SDS log2 ratios) (log2 ratio difference); higher = more soluble in mitosis
[2] = test system: HeLa Kyoto; experiment: thermal stability score vs G1/S (z-score of summed log2 fold changes over temperatures); higher = more thermally stable than in G1/S
[3] = test system: HeLa Kyoto; experiment: melting temperature (median over replicates), in situ; higher = more thermally stable
[4] = test system: HeLa Kyoto; experiment: solubility in G1/S (NP-40 vs SDS abundance) (log2 ratio); higher = more soluble; conditions: cell cycle stage: G1/S
[5] = cell cycle stage: early G1 (4.5 h after nocodazole release)
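Throughout, for melting temperature (median over replicates), in situ: HeLa Kyoto cells synchronized by double thymidine or nocodazole block, proteins quantified by TMT10plex mass spectrometry, three independent biological replicates.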
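Throughout, for solubility change mitosis vs G1/S (difference of NP-40 vs SDS log2 ratios): synchronized HeLa Kyoto cells (double thymidine block for G1/S, nocodazole release for mitosis), protein amounts in NP-40 versus SDS lysates quantified by mass spectrometry, three biological replicates.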
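Throughout, for solubility in G1/S (NP-40 vs SDS abundance): HeLa Kyoto cells arrested at G1/S by double thymidine block, proteins quantified by TMT10plex mass spectrometry in mild NP-40 versus SDS extracts, three biological replicates.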
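Throughout, for thermal stability score vs G1/S (z-score of summed log2 fold changes over temperatures): synchronized HeLa Kyoto cells, proteins quantified by TMT10plex mass spectrometry, three biological replicates, mitosis taken 0.5 h after nocodazole release, G1/S directly after double thymidine block.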

| Sequence | solubility change mitosis (log2) [1] | thermal stability score [2, 5] | thermal stability score ([2]; cell cycle stage: mitosis) | melting temperature ([3]; cell cycle stage: G1/S) | melting temperature ([3]; cell cycle stage: mitosis) | solubility in G1/S (log2) [4] |
| --- | --- | --- | --- | --- | --- | --- |
| MDSRLQEIRERQKLRRQLLAQQLGAESADSIGAVLNSKDEQREIAETRETCRASYDTSAPNAKRKYLDEGETDEDKMEEYKDELEMQQDEENLPYEEEIYKDSSTFLKGTQSLNPHNDYCQHFVDTGHRPQNFIRDVGLADRFEEYPKLRELIRLKDELIAKSNTPPMYLQADIEAFDIRELTPKFDVILLEPPLEEYYRETGITANEKCWTWDDIMKLEIDEIAAPRSFIFLWCGSGEGLDLGRVCLRKWGYRRCEDICWIKTNKNNPGKTKTLDPKAVFQRTKEHCLMGIKGTVKRSTDGDFIHANVDIDLIITEEPEIGNIEKPVEIFHIIEHFCLGRRRLHLFGRDSTIRPGWLTVGPTLTNSNYNAETYASYFSAPNSYLTGCTEEIERLRPKSPPPKSKSDRGGGAPRGGGRGGTSAGRGRERNRSNFRGERGGFRGGRGGAHRGGFPPR [METTL14] | -0.118 | -0.705 | 0.141 | 52.3 °C | 53.4 °C | 0.0131 |
| MDTGVIEGGLNVTLTIRLLMHGKEVGSIIGKKGESVKKMREESGARINISEGNCPERIITLAGPTNAIFKAFAMIIDKLEEDISSSMTNSTAASRPPVTLRLVVPASQCGSLIGKGGCKIKEIRESTGAQVQVAGDMLPNSTERAITIAGIPQSIIECVKQICVVMLETLSQSPPKGVTIPYRPKPSSSPVIFAGGQDRYSTGSDSASFPHTTPSMCLNPDLEGPPLEAYTIQGQYAIPQPDLTKLHQLAMQQSHFPMTHGNTGFSGIESSSPEVKGYWGLDASAQTTSHELTIPNDLIGCIIGRQGAKINEIRQMSGAQIKIANPVEGSTDRQVTITGSAASISLAQYLINVRLSSETGGMGSS [PCBP2] | -0.136 | 1.75 | 7.6 | 47.9 °C | 49.5 °C | 0.222 |
| MDTMMLNVRNLFEQLVRRVEILSEGNEVQFIQLAKDFEDFRKKWQRTDHELGKYKDLLMKAETERSALDVKLKHARNQVDVEIKRRQRAEADCEKLERQIQLIREMLMCDTSGSIQLSEEQKSALAFLNRGQPSSSNAGNKRLSTIDESGSILSDISFDKTDESLDWDSSLVKTFKLKKREKRRSTSRQFVDGPPGPVKKTRSIGSAVDQGNESIVAKTTVTVPNDGGPIEAVSTIETVPYWTRSRRKTGTLQPWNSDSTLNSRQLEPRTETDSVGTPQSNGGMRLHDFVSKTVIKPESCVPCGKRIKFGKLSLKCRDCRVVSHPECRDRCPLPCIPTLIGTPVKIGEGMLADFVSQTSPMIPSIVVHCVNEIEQRGLTETGLYRISGCDRTVKELKEKFLRVKTVPLLSKVDDIHAICSLLKDFLRNLKEPLLTFRLNRAFMEAAEITDEDNSIAAMYQAVGELPQANRDTLAFLMIHLQRVAQSPHTKMDVANLAKVFGPTIVAHAVPNPDPVTMLQDIKRQPKVVERLLSLPLEYWSQFMMVEQENIDPLHVIENSNAFSTPQTPDIKVSLLGPVTTPEHQLLKTPSSSSLSQRVRSTLTKNTPRFGSKSKSATNLGRQGNFFASPMLK [RACGAP1] | 0.141 | 1.13 | 1.61 | 48.1 °C | 49.1 °C | -0.106 |
| MDVAESPERDPHSPEDEEQPQGLSDDDILRDSGSDQDLDGAGVRASDLEDEESAARGPSQEEEDNHSDEEDRASEPKSQDQDSEVNELSRGPTSSPCEEEGDEGEEDRTSDLRDEASSVTRELDEHELDYDEEVPEEPAPAVQEDEAEKAGAEDDEEKGEGTPREEGKAGVQSVGEKESLEAAKEKKKEDDDGEIDDGEIDDDDLEEGEVKDPSDRKVRPRPTCRFFMKGNCTWGMNCRFIHPGVNDKGNYSLITKADPFPPNGAPPLGPHPLMPANPWGGPVVDEILPPPPPEPPTESAWERGLRHAKEVLKKATIRKEQEPDFEEKRFTVTIGEDEREFDKENEVFRDWNSRIPRDVRDTVLEPYADPYYDYEIERFWRGGQYENFRVQYTETEPYHNYRERERERERENRQRERERERERDRERERRQRERERERERERDKERQRRKEEWERERAKRDEKDRQHRDRDREKEREKEKGKPKPRSPQPPSRQAEPPKKEAATTGPQVKRADEWKDPWRRSKSPKKKLGVSVSPSRARRRRKTSASSASASNSSRSSSRSSSYSGSGSSRSRSRSSSYSSYSSRSSRHSSFSGSRSRSRSFSSSPSPSPTPSPHRPSIRTKGEPAPPPGKAGEKSVKKPAPPPAPPQATKTTAPVPEPTKPGDPREARRKERPARTPPRRRTLSGSGSGSGSSYSGSSSRSRSLSVSSVSSVSSATSSSSSAHSVDSEDMYADLASPVSSASSRSPAPAQTRKEKGKSKKEDGVKEEKRKRDSSTQPPKSAKPPAGGKSSQQPSTPQQAPPGQPQQGTFVAHKEIKLTLLNKAADKGSRKRYEPSDKDRQSPPPAKRPNTSPDRGSRDRKSGGRLGSPKPERQRGQNSKAPAAPADRKRQLSPQSKSSSKVTSVPGKASDPGAASTKSGKASTLSRREELLKQLKAVEDAIARKRAKIPGKA [ZC3H18] | 0.144 | 7.23 | 11.9 | 48.7 °C | 51.3 °C | -0.653 |
| MDVENEQILNVNPADPDNLSDSLFSGDEENAGTEEIKNEINGNWISASSINEARINAKAKRRLRKNSSRDSGRGDSVSDSGSDALRSGLTVPTSPKGRLLDRRSRSGKGRGLPKKGGAGGKGVWGTPGQVYDVEEVDVKDPNYDDDQENCVYETVVLPLDERAFEKTLTPIIQEYFEHGDTNEVAEMLRDLNLGEMKSGVPVLAVSLALEGKASHREMTSKLLSDLCGTVMSTTDVEKSFDKLLKDLPELALDTPRAPQLVGQFIARAVGDGILCNTYIDSYKGTVDCVQARAALDKATVLLSMSKGGKRKDSVWGSGGGQQSVNHLVKEIDMLLKEYLLSGDISEAEHCLKELEVPHFHHELVYEAIIMVLESTGESTFKMILDLLKSLWKSSTITVDQMKRGYERIYNEIPDINLDVPHSYSVLERFVEECFQAGIISKQLRDLCPSRGRKRFVSEGDGGRLKPESY [PDCD4] | -0.495 | 1.91 | 4.21 | 48.8 °C | – | 0.349 |

— the supplement of paper PMC5998384
